How the values were obtained:
[1] = biological target: collagenase-3 dual receptor system on UMR 106-01 cells (collagenase-3 receptor and low density lipoprotein receptor-related protein); assay: competition with ^125I mouse collagenase-3 on UMR-106-01 cells; 200-, 400- and 800-fold excess of competitor
[2] = biological target: collagenase-3 receptor and low density lipoprotein receptor-related protein on MEF-1 cells; assay: competition with ^125I mouse collagenase-3 on MEF-1 cells; 200-, 400- and 800-fold excess of competitor
[3] = biological target: collagenase-3 receptor (170 kDa protein) of mouse embryo fibroblasts MEF-1 and MEF-2 (mouse) (UniProt Q64449); assay: competition with ^125I mouse collagenase-3 on MEF-2 (LRP null) cells; 200-, 400- and 800-fold excess of competitor
[4] = biological target: collagenase-3 dual receptor system on UMR 106-01 cells (collagenase-3 receptor and low density lipoprotein receptor-related protein); assay: competition with ^125I mouse collagenase-3 on UMR cells
[5] = biological target: low density lipoprotein receptor-related protein of human chondrocytes (UniProt Q07954)
[6] = biological target: low density lipoprotein receptor-related protein of human chondrocytes (UniProt Q07954); assay: cell-based or functional assay
[7] = biological target: rat collagenase-3 receptor (170 kDa protein) of UMR 106-01 rat osteosarcoma cells and other rat cells (rat); assay: ^125I-labeled ligand at 8 nM on UMR cells, triplicate wells
[8] = biological target: rat collagenase-3 receptor (170 kDa protein) of UMR 106-01 rat osteosarcoma cells and other rat cells (rat); assay: ^125I-labeled ligand at 10 nM on UMR cells, triplicate wells

Chain of rat collagenase-3 receptor (170 kDa protein) of UMR 106-01 rat osteosarcoma cells and other rat cells (rat) (Q4TU93 31-1480): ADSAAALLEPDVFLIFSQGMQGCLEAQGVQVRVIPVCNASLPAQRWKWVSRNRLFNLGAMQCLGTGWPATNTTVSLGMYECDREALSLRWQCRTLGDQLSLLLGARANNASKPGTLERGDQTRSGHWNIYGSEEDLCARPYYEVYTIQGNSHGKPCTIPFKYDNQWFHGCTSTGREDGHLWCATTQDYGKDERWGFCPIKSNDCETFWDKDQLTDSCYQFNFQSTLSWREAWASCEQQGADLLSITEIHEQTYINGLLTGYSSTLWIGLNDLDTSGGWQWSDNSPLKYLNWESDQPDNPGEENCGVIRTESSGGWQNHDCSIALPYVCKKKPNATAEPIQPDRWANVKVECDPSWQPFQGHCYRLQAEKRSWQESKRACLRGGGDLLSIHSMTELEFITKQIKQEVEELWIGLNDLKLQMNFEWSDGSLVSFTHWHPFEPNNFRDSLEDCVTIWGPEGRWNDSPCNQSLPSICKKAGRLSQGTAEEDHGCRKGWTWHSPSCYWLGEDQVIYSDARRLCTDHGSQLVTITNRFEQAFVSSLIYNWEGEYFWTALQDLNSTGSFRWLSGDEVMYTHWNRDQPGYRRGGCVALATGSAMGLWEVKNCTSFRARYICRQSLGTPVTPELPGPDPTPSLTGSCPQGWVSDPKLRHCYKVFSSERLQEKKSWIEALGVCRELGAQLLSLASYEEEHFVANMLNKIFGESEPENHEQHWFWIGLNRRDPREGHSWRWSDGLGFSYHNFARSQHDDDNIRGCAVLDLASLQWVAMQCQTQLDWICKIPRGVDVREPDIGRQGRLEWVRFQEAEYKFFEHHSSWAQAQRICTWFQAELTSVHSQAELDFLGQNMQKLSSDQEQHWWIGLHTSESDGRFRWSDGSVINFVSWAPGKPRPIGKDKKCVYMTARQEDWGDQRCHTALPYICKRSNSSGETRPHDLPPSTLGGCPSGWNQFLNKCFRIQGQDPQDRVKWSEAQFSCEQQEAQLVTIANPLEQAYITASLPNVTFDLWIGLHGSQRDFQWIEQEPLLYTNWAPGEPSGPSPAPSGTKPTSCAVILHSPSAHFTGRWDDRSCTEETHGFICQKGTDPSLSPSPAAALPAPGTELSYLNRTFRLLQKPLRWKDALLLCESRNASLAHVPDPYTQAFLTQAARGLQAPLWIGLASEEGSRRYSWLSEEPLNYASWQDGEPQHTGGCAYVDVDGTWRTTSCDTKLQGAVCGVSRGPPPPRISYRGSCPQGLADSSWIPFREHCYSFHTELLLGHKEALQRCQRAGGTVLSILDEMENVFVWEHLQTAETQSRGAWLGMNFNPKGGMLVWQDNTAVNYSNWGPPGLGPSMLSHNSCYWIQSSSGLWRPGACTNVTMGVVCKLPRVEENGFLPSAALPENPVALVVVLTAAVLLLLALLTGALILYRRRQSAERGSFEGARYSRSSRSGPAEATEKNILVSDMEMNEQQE
Chain of collagenase-3 receptor (170 kDa protein) of mouse embryo fibroblasts MEF-1 and MEF-2 (mouse) (Q64449 31-1479): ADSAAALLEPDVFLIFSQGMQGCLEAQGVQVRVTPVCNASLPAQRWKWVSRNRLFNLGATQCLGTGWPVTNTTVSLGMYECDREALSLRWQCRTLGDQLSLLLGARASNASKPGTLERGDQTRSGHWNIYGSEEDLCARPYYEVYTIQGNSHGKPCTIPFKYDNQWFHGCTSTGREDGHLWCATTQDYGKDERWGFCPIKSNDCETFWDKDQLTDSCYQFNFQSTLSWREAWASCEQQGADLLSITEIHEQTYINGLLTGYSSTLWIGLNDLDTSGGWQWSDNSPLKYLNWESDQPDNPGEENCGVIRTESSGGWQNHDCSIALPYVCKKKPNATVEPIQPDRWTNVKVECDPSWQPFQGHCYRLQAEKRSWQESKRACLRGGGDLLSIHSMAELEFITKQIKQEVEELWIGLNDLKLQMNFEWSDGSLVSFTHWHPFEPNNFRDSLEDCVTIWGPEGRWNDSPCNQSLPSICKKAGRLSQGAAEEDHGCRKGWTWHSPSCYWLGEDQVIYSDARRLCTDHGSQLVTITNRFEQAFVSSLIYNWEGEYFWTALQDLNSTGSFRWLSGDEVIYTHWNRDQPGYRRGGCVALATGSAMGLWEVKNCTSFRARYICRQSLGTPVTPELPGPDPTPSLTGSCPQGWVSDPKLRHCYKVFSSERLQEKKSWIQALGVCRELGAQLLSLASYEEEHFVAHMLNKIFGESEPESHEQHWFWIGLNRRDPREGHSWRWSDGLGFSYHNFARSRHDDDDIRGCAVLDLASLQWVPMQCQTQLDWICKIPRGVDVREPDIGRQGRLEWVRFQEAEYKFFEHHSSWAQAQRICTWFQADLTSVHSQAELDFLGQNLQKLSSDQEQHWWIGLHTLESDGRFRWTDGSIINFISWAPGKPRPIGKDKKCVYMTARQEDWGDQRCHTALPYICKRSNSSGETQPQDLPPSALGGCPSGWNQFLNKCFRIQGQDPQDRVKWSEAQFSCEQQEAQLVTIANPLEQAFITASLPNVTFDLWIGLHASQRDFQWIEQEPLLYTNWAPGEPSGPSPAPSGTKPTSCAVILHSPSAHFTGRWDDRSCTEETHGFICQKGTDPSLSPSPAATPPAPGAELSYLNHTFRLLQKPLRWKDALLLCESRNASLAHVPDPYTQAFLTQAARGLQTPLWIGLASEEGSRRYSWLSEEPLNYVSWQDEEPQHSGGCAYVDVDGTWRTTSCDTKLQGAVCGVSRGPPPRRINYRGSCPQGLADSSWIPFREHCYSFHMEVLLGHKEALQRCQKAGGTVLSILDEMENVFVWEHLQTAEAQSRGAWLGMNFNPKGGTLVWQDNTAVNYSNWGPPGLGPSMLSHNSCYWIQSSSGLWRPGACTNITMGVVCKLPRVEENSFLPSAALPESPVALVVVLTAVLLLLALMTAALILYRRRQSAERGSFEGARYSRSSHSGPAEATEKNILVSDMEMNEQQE
Chain of human fibroblast collagenase-1 (MMP-1) (P03956 100-469): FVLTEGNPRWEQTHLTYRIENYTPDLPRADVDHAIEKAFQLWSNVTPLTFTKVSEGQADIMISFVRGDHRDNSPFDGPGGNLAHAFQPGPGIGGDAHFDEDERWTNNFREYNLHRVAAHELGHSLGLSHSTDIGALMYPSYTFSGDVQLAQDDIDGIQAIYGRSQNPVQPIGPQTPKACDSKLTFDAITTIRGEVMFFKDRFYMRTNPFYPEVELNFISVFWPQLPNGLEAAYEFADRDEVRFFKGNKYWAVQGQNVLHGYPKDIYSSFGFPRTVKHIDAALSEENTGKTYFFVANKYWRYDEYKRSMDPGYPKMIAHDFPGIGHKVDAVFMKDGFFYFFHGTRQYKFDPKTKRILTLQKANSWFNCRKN
Chain of human 92 kDa gelatinase (MMP-9) (P14780 20-707 limits assumed): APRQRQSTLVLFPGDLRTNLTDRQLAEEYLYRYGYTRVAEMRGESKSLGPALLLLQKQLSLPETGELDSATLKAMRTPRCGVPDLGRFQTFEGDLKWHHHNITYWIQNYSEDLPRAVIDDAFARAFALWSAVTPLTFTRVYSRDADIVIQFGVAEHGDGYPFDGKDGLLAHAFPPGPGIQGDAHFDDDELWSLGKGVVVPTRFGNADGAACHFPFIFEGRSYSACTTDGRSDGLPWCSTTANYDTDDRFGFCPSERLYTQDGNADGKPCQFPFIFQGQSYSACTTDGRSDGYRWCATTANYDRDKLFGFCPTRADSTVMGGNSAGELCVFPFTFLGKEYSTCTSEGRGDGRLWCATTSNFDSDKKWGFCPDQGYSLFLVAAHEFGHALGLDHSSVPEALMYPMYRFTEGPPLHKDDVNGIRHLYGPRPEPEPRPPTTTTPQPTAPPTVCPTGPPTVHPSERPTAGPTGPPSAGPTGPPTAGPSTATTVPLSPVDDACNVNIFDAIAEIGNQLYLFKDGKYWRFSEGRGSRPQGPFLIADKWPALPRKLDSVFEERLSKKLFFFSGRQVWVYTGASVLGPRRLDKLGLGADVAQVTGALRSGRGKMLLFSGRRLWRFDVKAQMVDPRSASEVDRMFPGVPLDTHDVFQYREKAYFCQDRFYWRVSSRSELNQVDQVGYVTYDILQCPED
Chain of human 72 kDa gelatinase (MMP-2) (P08253 30-660 limits assumed): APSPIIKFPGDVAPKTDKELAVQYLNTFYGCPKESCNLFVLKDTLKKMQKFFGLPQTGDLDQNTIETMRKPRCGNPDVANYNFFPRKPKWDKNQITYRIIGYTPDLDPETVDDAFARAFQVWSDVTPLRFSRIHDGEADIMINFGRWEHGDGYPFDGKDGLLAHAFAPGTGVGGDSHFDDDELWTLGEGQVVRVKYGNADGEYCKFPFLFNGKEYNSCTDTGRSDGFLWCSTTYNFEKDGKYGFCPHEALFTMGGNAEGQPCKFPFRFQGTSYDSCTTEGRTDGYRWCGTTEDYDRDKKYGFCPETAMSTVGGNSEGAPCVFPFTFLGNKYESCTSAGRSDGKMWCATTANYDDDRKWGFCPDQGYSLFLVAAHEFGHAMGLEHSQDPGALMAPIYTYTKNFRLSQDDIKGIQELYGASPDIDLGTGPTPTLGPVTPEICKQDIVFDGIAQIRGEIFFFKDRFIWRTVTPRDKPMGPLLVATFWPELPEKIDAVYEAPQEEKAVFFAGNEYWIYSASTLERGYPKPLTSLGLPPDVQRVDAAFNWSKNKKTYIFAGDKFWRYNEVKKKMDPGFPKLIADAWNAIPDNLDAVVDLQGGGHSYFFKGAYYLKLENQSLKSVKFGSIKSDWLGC

| Substance | percent of mouse collagenase-3 binding [1] | percent of mouse collagenase-3 binding [2] | also measured |
| --- | --- | --- | --- |
| C-terminally truncated mouse collagenase-3, M(1-265) (from UniProt P33435 20-265) (enzyme) | 100% | 100% |  |
| H/M(229-472) chimeric collagenase (from UniProt P03956 20-223; P33435 229-472) (enzyme) | 16.5% | 2.2% |  |
| HM(141-228)/H chimeric collagenase (from UniProt P03956 20-135; P33435 141-228; P03956 224-408) (enzyme) | 89.9% | 94.3% | percent of mouse collagenase-3 binding [3]: 75.1% |
| HM(166-228)/H chimeric collagenase (from UniProt P03956 20-160; P33435 166-228; P03956 224-408) (enzyme) | 67.8% | 80.8% | percent of mouse collagenase-3 binding [3]: 97.2% |
| HM/M(141-472) chimeric collagenase (from UniProt P03956 20-135; P33435 141-472) (enzyme) | 95.7% | 84.4% |  |
| M(1-228)/H chimeric collagenase (from UniProt P33435 20-228; P03956 224-408) (enzyme) | 85.3% | 85.9% | percent of mouse collagenase-3 binding [3]: 41.9%; competition efficiency compared to full-length collagenase-3 [4]: > 90% |
| MH(213-267)/M chimeric collagenase (exon 5 replacement) (from UniProt P33435 20-212; P03956 213-267; P33435 268-472) (enzyme) | 95.5% | 99.1% | percent of mouse collagenase-3 binding [3]: 98.7% |
| ^125I collagenase-3 of Example 3 |  |  | reduction of collagenase-3 internalization by RAP in osteoarthritis chondrocytes [5]: by 74.3% |
| ^125I collagenase-3 of Example 3 (enzyme) |  |  | inhibition of collagenase-3 internalization by receptor-associated protein in control human chondrocytes [6]: 88.2% |
| human 72 kDa gelatinase (MMP-2) (from UniProt P08253 30-660) (enzyme) |  |  | Specific binding (fmol/2.6 × 10^5 cells) [7]: 0 |
| human 92 kDa gelatinase (MMP-9) (from UniProt P14780 20-707) (enzyme) |  |  | Specific binding (fmol/2.6 × 10^5 cells) [8]: 3.9 |
| human fibroblast collagenase-1 (MMP-1) (from UniProt P03956 100-469) (enzyme) | 0% |  | Specific binding (fmol/2.6 × 10^5 cells) [7]: 0.1 |
| human stromelysin-1 (MMP-3) (from UniProt P08254 18-477) (enzyme) |  |  | Specific binding (fmol/2.6 × 10^5 cells) [7]: 0 |
| recombinant mouse collagenase-3 (mMMP-13, residues 1-472) (from UniProt P33435 20-472) (enzyme) | 100% | 100% |  |
